# Data: PMC9637144
# Biological target: human IGF1R ectodomain (Δβ mutant) (human) (UniProt P08069)
# Experiment: radioligand binding
substance,measurement,value
human IGF-1 (unlabeled) (from UniProt P05019 49-118) (ligand),IC50,400 pM
